B1: Glutaredoxin-3 (Homo sapiens), O76003 (parent)
chain: MAAGAAEAAVAAVEEVGSAGQFEELLRLKAKSLLVVHFWAPWAPQCAQMNEVMAELAKELPQVSFVKLEAEGVPEVSEKYEISSVPTFLFFKNSQKIDRLDGAHAPELTKKVQRHASSGSFLPSANEHLKEDLNLRLKKLTHAAPCMLFMKGTPQEPRCGFSKQMVEILHKHNIQFSSFDIFSDEEVRQGLKAYSSWPTYPQLYVSGELIGGLDIIKELEASEELDTICPKAPKLEERLKVLTNKASVMLFMKGNKQEAKCGFSKQILEILNSTGVEYETFDILEDEEVRQGLKAYSNWPTYPQLYVKGELVGGLDIVKELKENGELLPILRGEN
partner: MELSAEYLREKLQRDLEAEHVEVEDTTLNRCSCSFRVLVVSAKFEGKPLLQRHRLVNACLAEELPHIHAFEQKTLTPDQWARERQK
B2: Glutaredoxin-3 (Homo sapiens), O76003 (parent)
chain: B1 chain

Variants of: B1
Settings: with bola2_human BOLA2, Q9H3K6

| Variant | effect of a mutation on the interaction |
| --- | --- |
| C159S;W197D;P198A | decreasing interaction strength |
| C159S;W197D;P198A;C261S;W299D;P300A | disrupting interaction strength |
| C261S;W299D;P300A | decreasing interaction strength |

Variants of: B2
Settings: with cpin1_human CIAPIN1, Q6FI81
Sequence of cpin1_human CIAPIN1, Q6FI81 (Q6FI81 whole entry): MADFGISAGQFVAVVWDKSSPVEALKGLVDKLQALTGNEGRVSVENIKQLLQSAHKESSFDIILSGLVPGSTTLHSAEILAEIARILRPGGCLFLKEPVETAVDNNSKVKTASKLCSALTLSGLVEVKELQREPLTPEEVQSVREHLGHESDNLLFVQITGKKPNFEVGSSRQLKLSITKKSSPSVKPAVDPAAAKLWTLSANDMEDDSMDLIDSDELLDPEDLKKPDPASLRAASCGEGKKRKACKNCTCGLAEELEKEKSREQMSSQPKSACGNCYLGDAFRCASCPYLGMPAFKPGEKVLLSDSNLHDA

| Variant | effect of a mutation on the interaction |
| --- | --- |
| C159S;W197D;P198A;C261S;W299D;P300A | disrupting interaction strength |

Source: IntAct's records for PubMed 27519415
